The values that follow come from patent US20140322218A1 (Amgen, published 2014).

Substitutions are numbered along the chain they refer to. In names and notes the source's numbering stands.

Common to all, as to experiment: FACS, transfected 293T
A general note: In flow cytometry, cells or beads pass a laser one at a time.

The target in assay [1] is T1, (1-43)::FLAG::ckCDH19(44-468)::huCDH19(464-772), on 293T cells (human/chicken chimera).
T1 construct: Entry holds leader (1-43), Flag tag and CDH19 part; leader left out; also called Hu EC5 (chicken backbone)
T1 chain: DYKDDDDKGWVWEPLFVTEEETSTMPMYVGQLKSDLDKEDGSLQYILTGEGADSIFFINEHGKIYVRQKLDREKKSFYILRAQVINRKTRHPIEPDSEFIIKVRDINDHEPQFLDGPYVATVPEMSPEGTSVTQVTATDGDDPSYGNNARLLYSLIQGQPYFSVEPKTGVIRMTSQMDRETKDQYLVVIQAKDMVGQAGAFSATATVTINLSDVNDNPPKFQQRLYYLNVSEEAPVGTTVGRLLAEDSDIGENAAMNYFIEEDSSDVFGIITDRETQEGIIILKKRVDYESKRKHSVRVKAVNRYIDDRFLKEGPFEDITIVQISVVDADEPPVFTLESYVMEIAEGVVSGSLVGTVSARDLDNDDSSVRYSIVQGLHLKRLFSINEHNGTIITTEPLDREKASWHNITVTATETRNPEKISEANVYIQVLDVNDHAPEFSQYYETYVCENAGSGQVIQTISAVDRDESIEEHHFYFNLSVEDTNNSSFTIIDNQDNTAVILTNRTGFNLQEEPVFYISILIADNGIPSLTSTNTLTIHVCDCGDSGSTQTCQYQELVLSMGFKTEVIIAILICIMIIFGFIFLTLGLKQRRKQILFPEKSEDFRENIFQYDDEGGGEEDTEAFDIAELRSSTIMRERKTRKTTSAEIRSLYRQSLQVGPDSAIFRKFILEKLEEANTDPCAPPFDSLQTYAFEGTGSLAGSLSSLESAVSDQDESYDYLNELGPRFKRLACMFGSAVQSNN
Description: (§1) The following binding assay was completed in presence of 2 mM CaCl2. […] Cells were then washed one time and the amount of cell associated Alexa647-labelled Ab was quantitated by flow cytometry. The experiments included mock transfected controls.

Assay [2] deals with T2, huCDH19(1-43)::FLAG::hu(44-141)::ckCDH19(142-776), on 293T cells (human/chicken chimera).
T2 construct: Entry holds leader (1-43), Flag tag and CDH19 part; leader left out; also called Hu EC1 (chicken backbone)
Description: as §1

The target in assay [3] is T3, ckCDH19(1-43)::FLAG::ckCDH19(44-249)::huCDH19(250-364)::ckCDH19(365-776), on 293T cells (human/chicken chimera).
T3 construct: Entry holds leader (1-43), Flag tag and CDH19 part; leader left out; also called Hu EC3 (chicken backbone)
Description: as §1

The target of assay [4] is T4, rhCDH19(1-43)::FLAG::rhCDH19(44-772), on 293T cells (rhesus macaque, UniProt Q9H159 44-772 (human entry)).
T4 construct: Entry holds leader (1-43), Flag tag and CDH19 part; leader left out; also called Rh EC1-5
T4 chain: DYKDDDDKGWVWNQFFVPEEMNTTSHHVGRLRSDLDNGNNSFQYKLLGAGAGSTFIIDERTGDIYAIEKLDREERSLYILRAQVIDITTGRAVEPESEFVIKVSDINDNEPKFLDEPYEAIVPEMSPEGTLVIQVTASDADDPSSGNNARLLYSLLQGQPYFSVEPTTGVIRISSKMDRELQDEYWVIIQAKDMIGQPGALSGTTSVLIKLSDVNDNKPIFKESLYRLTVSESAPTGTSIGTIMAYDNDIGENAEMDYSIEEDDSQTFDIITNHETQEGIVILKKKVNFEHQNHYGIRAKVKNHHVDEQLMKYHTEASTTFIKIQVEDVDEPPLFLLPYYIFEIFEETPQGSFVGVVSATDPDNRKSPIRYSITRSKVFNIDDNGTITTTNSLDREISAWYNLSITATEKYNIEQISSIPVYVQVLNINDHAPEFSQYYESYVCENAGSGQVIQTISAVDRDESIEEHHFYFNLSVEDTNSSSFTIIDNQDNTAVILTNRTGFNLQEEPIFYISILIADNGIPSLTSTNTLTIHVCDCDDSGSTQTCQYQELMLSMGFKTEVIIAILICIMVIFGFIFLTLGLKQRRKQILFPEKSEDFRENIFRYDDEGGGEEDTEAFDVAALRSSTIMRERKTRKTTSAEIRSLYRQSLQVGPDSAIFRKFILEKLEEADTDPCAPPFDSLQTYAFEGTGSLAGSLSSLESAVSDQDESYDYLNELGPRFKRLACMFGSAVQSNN
Description: as §1

For assay [5], the target named is T5, raCDH19(1-43)::FLAG::raCDH19(44-770), on 293T cells (rat).
T5 construct: Entry holds leader (1-43), Flag tag and CDH19 part; leader left out; also called Ra EC1-5
T5 chain: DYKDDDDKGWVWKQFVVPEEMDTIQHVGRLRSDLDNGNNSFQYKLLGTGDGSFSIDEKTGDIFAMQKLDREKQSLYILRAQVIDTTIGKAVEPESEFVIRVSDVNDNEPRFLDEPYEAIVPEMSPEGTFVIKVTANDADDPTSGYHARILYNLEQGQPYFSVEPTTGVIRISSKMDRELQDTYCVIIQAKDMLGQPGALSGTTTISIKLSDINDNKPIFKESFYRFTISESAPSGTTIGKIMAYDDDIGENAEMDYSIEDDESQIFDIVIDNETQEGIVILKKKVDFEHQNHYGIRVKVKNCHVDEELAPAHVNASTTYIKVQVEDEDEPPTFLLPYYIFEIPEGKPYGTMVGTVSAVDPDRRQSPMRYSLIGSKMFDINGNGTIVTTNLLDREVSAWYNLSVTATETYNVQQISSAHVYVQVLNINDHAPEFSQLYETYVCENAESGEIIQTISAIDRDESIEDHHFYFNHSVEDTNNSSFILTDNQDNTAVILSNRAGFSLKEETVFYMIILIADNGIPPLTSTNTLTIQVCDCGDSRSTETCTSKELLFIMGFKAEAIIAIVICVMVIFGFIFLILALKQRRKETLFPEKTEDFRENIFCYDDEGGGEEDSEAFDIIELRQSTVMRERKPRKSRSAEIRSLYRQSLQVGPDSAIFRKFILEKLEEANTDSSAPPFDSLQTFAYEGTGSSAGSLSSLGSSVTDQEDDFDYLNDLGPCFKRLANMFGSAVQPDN
Description: as §1

B1: hu anti-<huCDH19> 4A9 VH::huIgG1z / 4A9 VL::huLLC-C1 (Ab ID 13589) (antibody, V domains shown)
VH: QVQLQESGPGLVKPSETLSLTCTVSGGSISGYYWSWIRQPPGKGLEWFAYFSYSGSTNYNPSLKSRVTLSVDTSKNQFSLKLSSVTAADTAVYYCARNWAFHFDFWGQGTLVTVSS
VL: QSVLTQPPSVSGAPGQRVTISCTGSSSNIGTGYAVHWYQQFPGTAPKLLIYGNNNRPSGVPDRFSGSKSGTSASLAITGLQAEDEADYYCQSYDSRLSGWVFGGGTKLTVLG
notes: Recombinant fully human IgG1
For the molecule B1, the binding result is “no binding (tested: 5 ug/ml)” in assay [1]; “binds” in assay [2]; “no binding (tested: 5 ug/ml)” in assay [3]; “binds” in assay [4]; “no binding (tested: 5 ug/ml)” in assay [5].

B2: hu anti-<huCDH19> 4B10 VH::huIgG1z / 4B10 VL::huKLC (Ab ID 13590) (antibody, V domains shown)
VH: QVQLVESGGGVVQPGRSLRLSCAASGFTFSSYDMHWVRQAPGKGLEWVAVISYDGTNEYYADSVKGRFTISRDTSKNTLYLQMNSLRAEDTAVYYCARERYFDWSFDYWGQGTLVSVSS
VL: EIVLTQSPGTLSLSPGERATLSCRASQSVSNTYLAWYHQRPGQAPRLLIYGASSRATGIPDRFSGSGSGTDFALTISSLEPEDFAVYYCQQYSNSWTFGQGTKVEIKR
Turning to B2, the binding result in assay [1] is recorded as “no binding (tested: 5 ug/ml)”; in assay [2], “no binding (tested: 5 ug/ml)”; in assay [3] it was “binds”; in assay [4] it was “binds”; in assay [5], “binds”.

B3: hu anti-<huCDH19> 25F8.1 (1-469)(F90Y) VH::huIgG1z / 25F8.1 (1-235)(K45Q,S102A,D111E) VL::huLLC-C2 (Ab ID 14096) (antibody, V domains shown)
VH: QVQLVQSGAEVKKPGASVKVSCKASGYTFTSYYIHWVRQAPGQGLEWMGIINPSGGSTRYAQKFQGRVTMTRDTSTSTVYMELSSLRSEDTAVYYCARGGIQLWLHFDYWGQGTLVTVSS
VL: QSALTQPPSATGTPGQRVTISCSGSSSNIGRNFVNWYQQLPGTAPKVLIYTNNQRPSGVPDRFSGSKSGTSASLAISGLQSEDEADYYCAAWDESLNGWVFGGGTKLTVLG
notes: Engineered variant of 25F8
For the molecule B3, the binding result is recorded as “no binding (tested: 5 ug/ml)” in assay [1]; “binds” in assay [2]; “no binding (tested: 5 ug/ml)” in assay [3]; “binds” in assay [4]; “no binding (tested: 5 ug/ml)” in assay [5].

B4: hu anti-<huCDH19> 26D1.1 VH::huIgG1z / 26D1.1 VL::huLLC-C2 (Ab ID 13882) (antibody, V domains shown)
VH: B3 VH with G26R, I34M, H35S, N52H, S57D, R59T, R72G, Q102K
VL: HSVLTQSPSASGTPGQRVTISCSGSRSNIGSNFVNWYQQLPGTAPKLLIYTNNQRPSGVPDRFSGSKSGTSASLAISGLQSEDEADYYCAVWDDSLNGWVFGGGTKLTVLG
For B4, the binding result is reported as “no binding (tested: 5 ug/ml)” in assay [1]; “binds” in assay [2]; “no binding (tested: 5 ug/ml)” in assay [3]; “binds” in assay [4]; “no binding (tested: 5 ug/ml)” in assay [5].

B5: anti-CDH19 antibody 2G6 (Ab ID 13588) (antibody, human IgG1, lambda, V domains shown)
VH: QVQLVESGGGVVQPGRSLRLSCAASGFTFSSYGMHWVRQAPGKGLEWVAFIWYDGSNKYYADSVKDRFTISRDNSKNTLYLQMKSLRAEDTAVYYCARRAGIIGTIGYYYGMDVWGQGTTVTVSS
VL: SYELTQPPSVSVSPGQTASITCSGDRLGEKYTCWYQQRPGQSPLLVIYQDTKRPSGIPERFSGSNSGNTATLTISGTQAMDEADYYCQAWDSSTVVFGGGTKLTVLG
Turning to B5, the binding result in assay [1] is on record as “no binding (tested: 5 ug/ml)”; in assay [2] it was “no binding (tested: 5 ug/ml)”; in assay [3] it was “binds”; in assay [4] it was “binds”; in assay [5], “binds”.

B6: hu anti-<huCDH19> 23A10.3 (1-474)(L92Q) VH::huIgG1z / 23A10.3 (1-231)(C42S) VL::huLLC-C2 (Ab ID 14077) (antibody, V domains shown)
VH: B5 VH with S31R, M34I, F50V, D66G, K84N, T91S, I103P, I106T
VL: B5 VL with T32V, C33S, R38K, L44I, T51N, R53W
notes: Engineered variant of 23A10
With B6, the binding result is “no binding (tested: 5 ug/ml)” in assay [1]; “no binding (tested: 5 ug/ml)” in assay [2]; “binds” in assay [3]; “binds” in assay [4]; “binds” in assay [5].

B7: anti-CDH19 antibody 4A2 (Ab ID 13592) (antibody, human IgG1, kappa, V domains shown)
VH: QVQLQESGPGLVKPSQTLSLTCTVSGGSISSSGYYWSWIRQHPGKGLEWIGYIYYTGSAYYNPSLKSRVTISVDTSKNQFSLKLSSVTAADTAVYYCARDGSSGWYFQYWGQGTLVTVSS
VL: EIVLTQSPGTLSLSPGERATLSCRASRNISSSYLAWYQQKPGQAPRLLIYGPSSRATGIPDRFSGSGSGTDFTLTISRLEPEDFTVYYCQQYGSSFTFGPGTKVDIKR
With B7, the binding result was “no binding (tested: 5 ug/ml)” in assay [1], “no binding (tested: 5 ug/ml)” in assay [2] and “binds” in assay [4].
